Biological target: T1, RhaS-GB1201b (RhaS L201R-GB1basic) (UniProt P09377 1-278, L201R)
T1 sequence: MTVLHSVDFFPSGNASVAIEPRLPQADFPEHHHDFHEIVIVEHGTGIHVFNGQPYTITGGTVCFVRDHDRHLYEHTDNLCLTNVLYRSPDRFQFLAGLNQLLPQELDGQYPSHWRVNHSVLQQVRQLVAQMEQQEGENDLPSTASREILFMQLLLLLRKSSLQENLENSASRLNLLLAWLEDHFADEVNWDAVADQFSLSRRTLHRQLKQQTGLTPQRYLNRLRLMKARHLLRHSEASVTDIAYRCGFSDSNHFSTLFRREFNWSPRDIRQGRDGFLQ
Experiment: EMSA

B1: rhaBAD RhaS site probe (oligos 3058/3288) (dsDNA)
DNA 1: ACGTTCATCTTTCCCTGGTTGCCAATGGCCCATTTTCCTGTCAGTAACGAGAAGGTCGCGAA
DNA 2: TTCGCGACCTTCTCGTTACTGACAGGAAAATGGGCCATTGGCAACCAGGGAAAGATGAACGT
B1: binds.
